Assay results as given in patent publication US20140348840A1 (Memorial Sloan Kettering, published 2014).

What was measured:
p300 [1] = target: T1, p300 (UniProt Q09472 2-2414, limits assumed); assay: anti-Flag co-IP from 293T cells, Western blot for p300
T1 construct: The shRNAs used in Kasumi-1 cells are against human p300
Protocol: (§1) After 36 hours the cells were lysed in RIPA buffer with 1 mM DTT and DNAse I 1 μg/mL and a proteinase inhibitor cocktail (Roche), and incubated on ice for 30 minutes. Nuclear extracts were prepared to examine the endogenous protein-protein interactions. Anti-Flag agarose (Sigma), anti-HA agarose (Pierce) or protein A/G agarose (Santa Cruz) was used in the immunoprecipitation assays. For western blot assays, protein samples were separated by electrophoresis on denaturing 3-8% or 4-12% premade polyacrylamide gels (Invitrogen) and blotted to PVDF membranes (Millipore).

p300 [2] = target: T1, p300; assay: anti-HA co-IP, Western blot for p300
Protocol: as §1

p300 [3] = target: T1, p300; assay: in vitro binding assay with purified proteins

T1 sequence (Q09472 2-2414 limits assumed): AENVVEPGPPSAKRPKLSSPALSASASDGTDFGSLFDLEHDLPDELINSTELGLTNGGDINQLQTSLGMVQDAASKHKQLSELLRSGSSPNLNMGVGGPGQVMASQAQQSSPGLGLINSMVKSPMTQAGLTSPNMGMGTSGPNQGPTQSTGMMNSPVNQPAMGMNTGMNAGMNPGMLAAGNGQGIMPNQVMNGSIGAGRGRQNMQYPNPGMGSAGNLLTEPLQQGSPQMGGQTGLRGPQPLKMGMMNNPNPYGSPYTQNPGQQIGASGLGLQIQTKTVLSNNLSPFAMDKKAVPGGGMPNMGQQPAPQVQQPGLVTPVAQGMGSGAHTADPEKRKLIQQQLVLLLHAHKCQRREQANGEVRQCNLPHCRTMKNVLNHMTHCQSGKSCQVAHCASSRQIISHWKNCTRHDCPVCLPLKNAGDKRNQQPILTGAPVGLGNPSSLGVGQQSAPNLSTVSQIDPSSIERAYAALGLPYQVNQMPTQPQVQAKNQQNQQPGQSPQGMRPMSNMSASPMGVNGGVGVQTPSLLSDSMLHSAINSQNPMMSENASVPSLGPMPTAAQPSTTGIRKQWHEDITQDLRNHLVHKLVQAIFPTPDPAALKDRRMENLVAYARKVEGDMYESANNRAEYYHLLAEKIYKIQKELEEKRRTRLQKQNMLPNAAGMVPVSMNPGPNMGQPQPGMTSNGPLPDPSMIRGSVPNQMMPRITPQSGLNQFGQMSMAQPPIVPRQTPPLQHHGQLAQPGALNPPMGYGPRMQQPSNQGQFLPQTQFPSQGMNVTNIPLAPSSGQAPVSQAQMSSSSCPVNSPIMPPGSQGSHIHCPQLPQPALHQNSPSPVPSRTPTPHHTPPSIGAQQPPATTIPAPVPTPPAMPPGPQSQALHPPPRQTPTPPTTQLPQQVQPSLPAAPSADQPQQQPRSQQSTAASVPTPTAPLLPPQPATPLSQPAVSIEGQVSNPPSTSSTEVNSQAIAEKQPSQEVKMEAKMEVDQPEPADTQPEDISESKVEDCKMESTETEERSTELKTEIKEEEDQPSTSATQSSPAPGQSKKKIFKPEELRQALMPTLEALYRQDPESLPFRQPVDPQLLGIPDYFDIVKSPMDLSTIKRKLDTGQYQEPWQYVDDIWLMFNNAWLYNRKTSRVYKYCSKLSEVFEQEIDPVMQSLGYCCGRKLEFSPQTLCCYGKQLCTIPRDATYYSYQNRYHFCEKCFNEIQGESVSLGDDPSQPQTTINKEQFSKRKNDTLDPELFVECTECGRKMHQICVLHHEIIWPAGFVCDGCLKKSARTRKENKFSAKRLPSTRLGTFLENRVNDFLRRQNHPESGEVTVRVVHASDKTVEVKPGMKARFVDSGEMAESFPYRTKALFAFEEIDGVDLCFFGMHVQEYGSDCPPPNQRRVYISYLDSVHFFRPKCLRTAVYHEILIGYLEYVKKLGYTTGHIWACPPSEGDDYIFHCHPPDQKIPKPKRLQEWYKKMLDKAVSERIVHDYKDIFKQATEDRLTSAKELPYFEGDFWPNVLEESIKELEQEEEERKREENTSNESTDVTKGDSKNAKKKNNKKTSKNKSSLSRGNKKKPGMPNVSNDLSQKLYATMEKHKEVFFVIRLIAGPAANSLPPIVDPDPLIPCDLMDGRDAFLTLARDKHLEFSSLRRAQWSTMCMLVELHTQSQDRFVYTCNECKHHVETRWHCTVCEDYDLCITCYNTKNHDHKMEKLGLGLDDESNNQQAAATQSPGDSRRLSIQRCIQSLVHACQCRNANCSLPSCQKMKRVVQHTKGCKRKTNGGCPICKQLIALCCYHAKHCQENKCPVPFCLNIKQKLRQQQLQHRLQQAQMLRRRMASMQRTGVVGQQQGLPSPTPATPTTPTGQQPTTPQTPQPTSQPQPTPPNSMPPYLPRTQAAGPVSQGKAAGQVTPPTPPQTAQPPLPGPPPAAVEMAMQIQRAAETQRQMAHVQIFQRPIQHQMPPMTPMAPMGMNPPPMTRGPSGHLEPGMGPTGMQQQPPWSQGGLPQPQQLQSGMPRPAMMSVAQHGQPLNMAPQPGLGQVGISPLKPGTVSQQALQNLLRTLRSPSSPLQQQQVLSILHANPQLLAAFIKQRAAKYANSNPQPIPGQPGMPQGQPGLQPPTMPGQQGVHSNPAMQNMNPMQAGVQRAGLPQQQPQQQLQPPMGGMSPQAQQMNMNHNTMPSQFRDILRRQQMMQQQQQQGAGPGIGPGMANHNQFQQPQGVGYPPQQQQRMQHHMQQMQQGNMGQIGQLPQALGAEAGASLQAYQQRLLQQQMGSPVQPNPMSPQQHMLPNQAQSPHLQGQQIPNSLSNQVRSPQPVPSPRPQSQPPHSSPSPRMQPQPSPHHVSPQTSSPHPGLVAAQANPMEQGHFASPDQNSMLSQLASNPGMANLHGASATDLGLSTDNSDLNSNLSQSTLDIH

| Binder | binding result (p300 [1]) | further results |
| --- | --- | --- |
| Flag-AE-ΔNHR1 (aa245-436) (other, also called AML1-ETO ΔNHR1; not shown: Flag tag at the N-terminus) MRIPVDASTSRRFTPPSTALSPGKMSEALPLGAPDAGAALAGKLRSGDRSMVEVLADHPGELVRTDSPNFLCSVLPTHWRCNKTLPIAFKVVALGDVPDGTLVTVMAGNDENYSAELRNATAAMKNQVARFNDLRFVGRSGRGKSFTLTITVFTNPPQVATYHRAIKITVDGPREPRNRTEKHSTMPDSPVDVKTQSRLTPPTMPPPPTTQGAPRTSSFTPTTLTNGTSHSPTALNGAPSPPNGFSHRDLRDRNRPMGLHGTRQEEMIDHRLTDREWAEEWKHLDHLLNCIMDMVEKTRRSLTVLRRCQEADREELNYWIRRYSDAEDLKKGGGSSSSHSRQQSPVNPDPVALDAHREFLHRPASGYVPEEIWKKAEEAVNEVKRQAMTELQKAVSEAERKAHDMITTERAKMERTVAEAKRQAAEDALAVINQQEDSSESCWNCGRKASETCSGCNTARYCGSFCQHKDWEKHHHICGQTLQAQQQGDTPAVSSSVTPNSGAGSPMDTPPAATPRSTTPGTPSTIETTPR | no binding |  |
| Flag-ETO-ΔNHR1 (other, human, UniProt Q06455 1-604, looked up, not shown: Flag tag) MISVKRNTWRALSLVIGDCRKKGNFEYCQDRTEKHSTMPDSPVDVKTQSRLTPPTMPPPPTTQGAPRTSSFTPTTLTNGTSHSPTALNGAPSPPNGLPHPTPPPPQHYRLDDMAIAHHYRDSYRHPSHRDLRDRNRPMGLHGTRQEEMIDHRLTDREWAEEWKHLDHLLNCIMDMVEKTRRSLTVLRRCQEADREELNYWIRRYSDAEDLKKGGGSSSSHSRQQSPVNPDPVALDAHREFLHRPASGYVPEEIWKKAEEAVNEVKRQAMTELQKAVSEAERKAHDMITTERAKMERTVAEAKRQAAEDALAVINQQEDSSESCWNCGRKASETCSGCNTARYCGSFCQHKDWEKHHHICGQTLQAQQQGDTPAVSSSVTPNSGAGSPMDTPPAATPRSTTPGTPSTIETTPR | no binding |  |
| HA-AML1-ETO9a (other, Alternatively spliced form of A-E with 575 amino acids, lacking NHR3 and NHR4; also called A-E9a; AE9a; not shown: HA tag (anti-HA antibody used for the IP)) MRIPVDASTSRRFTPPSTALSPGKMSEALPLGAPDAGAALAGKLRSGDRSMVEVLADHPGELVRTDSPNFLCSVLPTHWRCNKTLPIAFKVVALGDVPDGTLVTVMAGNDENYSAELRNATAAMKNQVARFNDLRFVGRSGRGKSFTLTITVFTNPPQVATYHRAIKITVDGPREPRNRTEKHSTMPDSPVDVKTQSRLTPPTMPPPPTTQGAPRTSSFTPTTLTNGTSHSPTALNGAPSPPNGFSNGPSSSSSSSLANQQLPPACGARQLSKLKRFLTTLQQFGNDISPEIGERVRTLVLGLVNSTLTIEEFHSKLQEATNFPLRPFVIPFLKANLPLLQRELLHCARLAKQNPAQYLAQHEQLLLDASTTSPVDSSELLLDVNENGKRRTPDRTKENGFDREPLHSEHPSKRPCTISPGQRYSPNNGLSYQPNGLPHPTPPPPQHYRLDDMAIAHHYRDSYRHPSHRDLRDRNRPMGLHGTRQEEMIDHRLTDREWAEEWKHLDHLLNCIMDMVEKTRRSLTVLRRCQEADREELNYWIRRYSDAEDLKKGGGSSSSHSRQQSPVNPDPVALD |  | binding result (p300 [2]): binds |
| AML1-ETO fusion protein (other, also called A-E; AE) MRIPVDASTSRRFTPPSTALSPGKMSEALPLGAPDAGAALAGKLRSGDRSMVEVLADHPGELVRTDSPNFLCSVLPTHWRCNKTLPIAFKVVALGDVPDGTLVTVMAGNDENYSAELRNATAAMKNQVARFNDLRFVGRSGRGKSFTLTITVFTNPPQVATYHRAIKITVDGPREPRNRTEKHSTMPDSPVDVKTQSRLTPPTMPPPPTTQGAPRTSSFTPTTLTNGTSHSPTALNGAPSPPNGFSNGPSSSSSSSLANQQLPPACGARQLSKLKRFLTTLQQFGNDISPEIGERVRTLVLGLVNSTLTIEEFHSKLQEATNFPLRPFVIPFLKANLPLLQRELLHCARLAKQNPAQYLAQHEQLLLDASTTSPVDSSELLLDVNENGKRRTPDRTKENGFDREPLHSEHPSKRPCTISPGQRYSPNNGLSYQPNGLPHPTPPPPQHYRLDDMAIAHHYRDSYRHPSHRDLRDRNRPMGLHGTRQEEMIDHRLTDREWAEEWKHLDHLLNCIMDMVEKTRRSLTVLRRCQEADREELNYWIRRYSDAEDLKKGGGSSSSHSRQQSPVNPDPVALDAHREFLHRPASGYVPEEIWKKAEEAVNEVKRQAMTELQKAVSEAERKAHDMITTERAKMERTVAEAKRQAAEDALAVINQQEDSSESCWNCGRKASETCSGCNTARYCGSFCQHKDWEKHHHICGQTLQAQQQGDTPAVSSSVTPNSGAGSPMDTPPAATPRSTTPGTPSTIETTPR |  | binding result (p300 [3]): binds |
| Flag-AE (Flag-tagged AML1-ETO) (other, Expressed in 293T cells with BosNeo-p300; anti-Flag IP; not shown: Flag tag added at the 5' end of the construct (N-terminus)) MRIPVDASTSRRFTPPSTALSPGKMSEALPLGAPDAGAALAGKLRSGDRSMVEVLADHPGELVRTDSPNFLCSVLPTHWRCNKTLPIAFKVVALGDVPDGTLVTVMAGNDENYSAELRNATAAMKNQVARFNDLRFVGRSGRGKSFTLTITVFTNPPQVATYHRAIKITVDGPREPRNRTEKHSTMPDSPVDVKTQSRLTPPTMPPPPTTQGAPRTSSFTPTTLTNGTSHSPTALNGAPSPPNGFSNGPSSSSSSSLANQQLPPACGARQLSKLKRFLTTLQQFGNDISPEIGERVRTLVLGLVNSTLTIEEFHSKLQEATNFPLRPFVIPFLKANLPLLQRELLHCARLAKQNPAQYLAQHEQLLLDASTTSPVDSSELLLDVNENGKRRTPDRTKENGFDREPLHSEHPSKRPCTISPGQRYSPNNGLSYQPNGLPHPTPPPPQHYRLDDMAIAHHYRDSYRHPSHRDLRDRNRPMGLHGTRQEEMIDHRLTDREWAEEWKHLDHLLNCIMDMVEKTRRSLTVLRRCQEADREELNYWIRRYSDAEDLKKGGGSSSSHSRQQSPVNPDPVALDAHREFLHRPASGYVPEEIWKKAEEAVNEVKRQAMTELQKAVSEAERKAHDMITTERAKMERTVAEAKRQAAEDALAVINQQEDSSESCWNCGRKASETCSGCNTARYCGSFCQHKDWEKHHHICGQTLQAQQQGDTPAVSSSVTPNSGAGSPMDTPPAATPRSTTPGTPSTIETTPR | binds |  |
| Flag-AE-ΔNHR2 (other, AML1-ETO lacking amino acids 481 to 547 (the NHR2 domain); also called AML1-ETO ΔNHR2; not shown: Flag tag at the N-terminus) MRIPVDASTSRRFTPPSTALSPGKMSEALPLGAPDAGAALAGKLRSGDRSMVEVLADHPGELVRTDSPNFLCSVLPTHWRCNKTLPIAFKVVALGDVPDGTLVTVMAGNDENYSAELRNATAAMKNQVARFNDLRFVGRSGRGKSFTLTITVFTNPPQVATYHRAIKITVDGPREPRNRTEKHSTMPDSPVDVKTQSRLTPPTMPPPPTTQGAPRTSSFTPTTLTNGTSHSPTALNGAPSPPNGFSNGPSSSSSSSLANQQLPPACGARQLSKLKRFLTTLQQFGNDISPEIGERVRTLVLGLVNSTLTIEEFHSKLQEATNFPLRPFVIPFLKANLPLLQRELLHCARLAKQNPAQYLAQHEQLLLDASTTSPVDSSELLLDVNENGKRRTPDRTKENGFDREPLHSEHPSKRPCTISPGQRYSPNNGLSYQPNGLPHPTPPPPQHYRLDDMAIAHHYRDSYRHPSHRDLRDRNRPMGLEDLKKGGGSSSSHSRQQSPVNPDPVALDAHREFLHRPASGYVPEEIWKKAEEAVNEVKRQAMTELQKAVSEAERKAHDMITTERAKMERTVAEAKRQAAEDALAVINQQEDSSESCWNCGRKASETCSGCNTARYCGSFCQHKDWEKHHHICGQTLQAQQQGDTPAVSSSVTPNSGAGSPMDTPPAATPRSTTPGTPSTIETTPR | binds |  |
